Experimental data as given in paper PMC8217500.

Key:
[1] = molecular target: Fc-tagged SARS-CoV-2 receptor-binding domain (RBD), wild type (SARS-CoV-2) (UniProt P0DTC2); assay: BLI; Fc-tagged RBD (20 ug/ml) loaded on anti-hIgG Fc Capture (AHC) biosensors, Fab in solution at four to five concentrations; Octet Red96e, room temperature, 1x kinetics buffer (1x PBS pH 7.4, 0.01% w/v BSA, 0.002% v/v Tween 20); 1:1 binding model
[2] = molecular target: Fc-tagged SARS-CoV-2 spike receptor-binding domain (RBD) (SARS-CoV-2) (UniProt P0DTC2); assay: BLI; Fc-tagged RBD (20 ug/ml) loaded on anti-hIgG Fc Capture (AHC) biosensors, Fab in solution; room temperature; 1x PBS pH 7.4, 0.01% BSA, 0.002% Tween 20; 1:1 binding model

Substance	Kd [1]	Kd [2]
COVD21-C8 F58Y Fab	> 1 µM	
COVD21-C8 Fab, Y58 variant (heavy chain F58Y)		2 µM
